# Measured values taken from paper PMC11272076 (Journal of Experimental Botany, 2024).
# Substitutions are numbered along the chain they refer to.
# B1: myosin VIII-A neck region (residues 828–930), NLuc fusion (domain or fragment)
# chain: RNRTLHGILRLQSYFRGHQARCRLKELKTGITILQSFVRGEKMRKEYTELLQRHRASAAIQSHVKRRIASQQYKATVDASAVIQSAIRGELVRRCAGDIGWLS
# B2: myosin ATM2 neck region (residues 878–967), NLuc fusion (domain or fragment)
# chain: RKKVLQGIVGLQKHFRGHLSRAYFQNMRKVTLVLQSYIRGENARRLFDTEAKFHADSVSEASTDELSAVIHLQSAVRGWLARKHFNSMQR
# B3: myosin ATM1 neck region (residues 848–943), NLuc fusion (domain or fragment)
# chain: RTLHGILRVQSSFRGYQARCLLKELKRGISILQSFVRGEKIRKEFAELRRRHKAAATIQSQVKSKIARIQYKGIADASVVIQSAIRGWLVRRCSGD
# Tests used:
# [1] = molecular target: T1, CLuc–CML13 (Arabidopsis thaliana, UniProt Q94AZ4 1-148); assay: split reporter
# T1 sequence: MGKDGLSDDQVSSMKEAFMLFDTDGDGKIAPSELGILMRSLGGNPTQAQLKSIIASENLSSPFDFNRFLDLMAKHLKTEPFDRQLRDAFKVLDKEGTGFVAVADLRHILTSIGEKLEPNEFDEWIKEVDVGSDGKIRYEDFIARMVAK
# [2] = molecular target: T2, CLuc–CML24 (Arabidopsis thaliana, UniProt P25070 1-161); assay: split reporter
# T2 sequence: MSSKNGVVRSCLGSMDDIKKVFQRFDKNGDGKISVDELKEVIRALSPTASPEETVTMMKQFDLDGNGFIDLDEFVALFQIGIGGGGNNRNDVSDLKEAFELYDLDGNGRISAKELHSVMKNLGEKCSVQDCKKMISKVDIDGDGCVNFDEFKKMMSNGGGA
# [3] = molecular target: T3, CLuc–CML14 (Arabidopsis thaliana, UniProt Q8VZ50 1-148); assay: split reporter
# T3 sequence: T1 sequence with G2S, D8N, Q47E, A48S, A55T, S56T, E117Q, N119S
# [4] = molecular target: T4, dansylated CML13 (Arabidopsis thaliana, UniProt Q94AZ4 1-148, covalent dansyl label (site not stated)); assay: steady-state dansyl fluorescence spectroscopy
# T4 sequence: T1 sequence
# [5] = molecular target: T5, dansylated CML14 (Arabidopsis thaliana, UniProt Q8VZ50 1-148, covalent dansyl label (site not stated)); assay: steady-state dansyl fluorescence spectroscopy
# T5 sequence: T1 sequence with G2S, D8N, Q47E, A48S, A55T, S56T, E117Q, N119S
# [6] = molecular target: dansylated CaM (petunia, UniProt P62199 1-149, covalent dansyl label (site not stated)); assay: steady-state dansyl fluorescence spectroscopy
Binder,fold signal above the CML42 control [1] [fold],fold signal above background (CML42 control) [2] [fold],fold signal above the CML42 control [3] [fold],binding result [4],binding result [5],binding result [6]
B1,~200,~2,~200,–,–,–
LHGILRVQSSFRGYQARCLLKEL [ATM1-IQ1 synthetic peptide],–,–,–,binds,binds,binds
B2,–,~2,–,–,–,–
LQGIVGLQKHFRGHLSRAYFQNM [ATM2-IQ1 synthetic peptide],–,–,–,–,–,binds
B3,~35,~2,~35,–,–,–
